The results in this text go back to publication PMC10161774.

The target in the test is T1, Recombinant tissue transglutaminase (tG) (human), P21980.
T1 chain: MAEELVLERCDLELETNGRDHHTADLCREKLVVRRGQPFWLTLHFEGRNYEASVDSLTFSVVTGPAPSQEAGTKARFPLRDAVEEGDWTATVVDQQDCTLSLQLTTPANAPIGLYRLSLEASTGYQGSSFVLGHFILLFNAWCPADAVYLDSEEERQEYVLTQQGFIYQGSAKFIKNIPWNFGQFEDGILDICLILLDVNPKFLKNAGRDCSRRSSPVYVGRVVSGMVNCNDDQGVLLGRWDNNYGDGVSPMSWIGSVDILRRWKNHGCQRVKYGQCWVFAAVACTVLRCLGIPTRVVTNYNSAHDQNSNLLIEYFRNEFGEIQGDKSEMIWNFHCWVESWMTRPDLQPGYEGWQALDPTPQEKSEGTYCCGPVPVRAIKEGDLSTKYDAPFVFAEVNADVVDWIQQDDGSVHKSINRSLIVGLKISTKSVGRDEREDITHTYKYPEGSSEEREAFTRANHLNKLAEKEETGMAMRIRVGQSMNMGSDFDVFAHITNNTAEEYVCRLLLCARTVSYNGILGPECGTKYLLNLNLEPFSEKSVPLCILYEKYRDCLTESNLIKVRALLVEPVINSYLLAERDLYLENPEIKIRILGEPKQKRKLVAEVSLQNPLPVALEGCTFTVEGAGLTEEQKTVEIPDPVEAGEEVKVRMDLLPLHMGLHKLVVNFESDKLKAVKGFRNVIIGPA
Kind of test: time-resolved SAXS; Kenics mixer (straight opening device, reaction class 3); 2 mg ml^-1 tG mixed with 4 mM CaCl2 in 20 mM HEPES pH 7.5, 100 mM NaCl, 10% glycerol, 1 mM DTT; time points 32-1500 ms; monomer to dimer. Particulars: remark: other sources report otherwise.

As usually defined, the stoichiometry N is the number of molecules, sites or subunits per partner or assembly.

B1: Recombinant tissue transglutaminase (tG), P21980 1-687 (enzyme)
chain: MAEELVLERCDLELETNGRDHHTADLCREKLVVRRGQPFWLTLHFEGRNYEASVDSLTFSVVTGPAPSQEAGTKARFPLRDAVEEGDWTATVVDQQDCTLSLQLTTPANAPIGLYRLSLEASTGYQGSSFVLGHFILLFNAWCPADAVYLDSEEERQEYVLTQQGFIYQGSAKFIKNIPWNFGQFEDGILDICLILLDVNPKFLKNAGRDCSRRSSPVYVGRVVSGMVNCNDDQGVLLGRWDNNYGDGVSPMSWIGSVDILRRWKNHGCQRVKYGQCWVFAAVACTVLRCLGIPTRVVTNYNSAHDQNSNLLIEYFRNEFGEIQGDKSEMIWNFHCWVESWMTRPDLQPGYEGWQALDPTPQEKSEGTYCCGPVPVRAIKEGDLSTKYDAPFVFAEVNADVVDWIQQDDGSVHKSINRSLIVGLKISTKSVGRDEREDITHTYKYPEGSSEEREAFTRANHLNKLAEKEETGMAMRIRVGQSMNMGSDFDVFAHITNNTAEEYVCRLLLCARTVSYNGILGPECGTKYLLNLNLEPFSEKSVPLCILYEKYRDCLTESNLIKVRALLVEPVINSYLLAERDLYLENPEIKIRILGEPKQKRKLVAEVSLQNPLPVALEGCTFTVEGAGLTEEQKTVEIPDPVEAGEEVKVRMDLLPLHMGLHKLVVNFESDKLKAVKGFRNVIIGPA
For B1, the stoichiometry N was 2.
